Laboratory results reported in patent publication US20090155164A1.
Where two headings read alike, the source gives them in different places.

How the values were obtained:
[1] = target: T1, recombinant human CSF-1 (human) (UniProt P09603); test: cell-based or functional assay
T1 sequence (looked up): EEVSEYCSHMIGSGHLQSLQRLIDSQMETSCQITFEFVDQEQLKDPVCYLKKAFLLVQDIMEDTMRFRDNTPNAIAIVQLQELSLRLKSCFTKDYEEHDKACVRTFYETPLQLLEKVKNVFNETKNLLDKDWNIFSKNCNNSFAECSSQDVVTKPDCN

[2] = target: T1, recombinant human CSF-1 (human); test: cell-based or functional assay; remark: listed apart in the source

Chain of c-fms-Fc, human c-fms extracellular domain (residues 1-512) with a C-terminal human Fc domain (P07333 20-512): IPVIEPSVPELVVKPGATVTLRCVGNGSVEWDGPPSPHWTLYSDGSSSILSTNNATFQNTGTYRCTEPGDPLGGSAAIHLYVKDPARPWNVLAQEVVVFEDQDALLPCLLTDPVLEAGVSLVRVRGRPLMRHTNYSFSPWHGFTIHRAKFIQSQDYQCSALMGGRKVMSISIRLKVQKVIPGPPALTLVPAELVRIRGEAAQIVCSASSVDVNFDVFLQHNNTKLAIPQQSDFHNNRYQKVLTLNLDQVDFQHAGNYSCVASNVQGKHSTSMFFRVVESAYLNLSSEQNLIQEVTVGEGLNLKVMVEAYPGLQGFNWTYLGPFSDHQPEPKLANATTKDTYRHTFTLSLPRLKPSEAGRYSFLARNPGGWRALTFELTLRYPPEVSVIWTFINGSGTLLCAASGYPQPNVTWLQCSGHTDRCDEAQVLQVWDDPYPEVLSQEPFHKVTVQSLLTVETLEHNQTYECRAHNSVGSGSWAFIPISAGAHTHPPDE

AML-5 bioassay IC50 [1]: 210 pM
Cynomolgus bone marrow bioassay IC50 [1]: 617 pM
Human CD14+ monocytes bioassay IC50 [1]: 556 pM
AML-5 bioassay IC50 [2]: 34 ng/mL
Cynomolgus bone marrow bioassay IC50 [2]: 100 ng/mL
Human CD14+ monocytes bioassay IC50 [2]: 90 ng/mL
Substance: c-fms-Fc, human c-fms extracellular domain (residues 1-512) with a C-terminal human Fc domain (from UniProt P07333 20-512) (Fc fusion)
